What all share (assay): ELISA on coated antigen, background subtracted
For orientation: An ELISA detects its analyte on a solid surface through an enzyme-linked reagent.

The target of experiment [1] is recombinant FN fragment 789 (human) (UniProt P02751).
In experiment [2] the target is recombinant FN domain 6 (human) (UniProt P02751).
The target in experiment [3] is human plasma fibronectin (human) (UniProt P02751).
Experiment [4] deals with native FN 110 kD (B-) thermolysin fragment (human) (UniProt P02751).
Chain of native FN 110 kD (B-) thermolysin fragment (human) (P02751 other isoform, or with tags, fused parts or gaps limits assumed): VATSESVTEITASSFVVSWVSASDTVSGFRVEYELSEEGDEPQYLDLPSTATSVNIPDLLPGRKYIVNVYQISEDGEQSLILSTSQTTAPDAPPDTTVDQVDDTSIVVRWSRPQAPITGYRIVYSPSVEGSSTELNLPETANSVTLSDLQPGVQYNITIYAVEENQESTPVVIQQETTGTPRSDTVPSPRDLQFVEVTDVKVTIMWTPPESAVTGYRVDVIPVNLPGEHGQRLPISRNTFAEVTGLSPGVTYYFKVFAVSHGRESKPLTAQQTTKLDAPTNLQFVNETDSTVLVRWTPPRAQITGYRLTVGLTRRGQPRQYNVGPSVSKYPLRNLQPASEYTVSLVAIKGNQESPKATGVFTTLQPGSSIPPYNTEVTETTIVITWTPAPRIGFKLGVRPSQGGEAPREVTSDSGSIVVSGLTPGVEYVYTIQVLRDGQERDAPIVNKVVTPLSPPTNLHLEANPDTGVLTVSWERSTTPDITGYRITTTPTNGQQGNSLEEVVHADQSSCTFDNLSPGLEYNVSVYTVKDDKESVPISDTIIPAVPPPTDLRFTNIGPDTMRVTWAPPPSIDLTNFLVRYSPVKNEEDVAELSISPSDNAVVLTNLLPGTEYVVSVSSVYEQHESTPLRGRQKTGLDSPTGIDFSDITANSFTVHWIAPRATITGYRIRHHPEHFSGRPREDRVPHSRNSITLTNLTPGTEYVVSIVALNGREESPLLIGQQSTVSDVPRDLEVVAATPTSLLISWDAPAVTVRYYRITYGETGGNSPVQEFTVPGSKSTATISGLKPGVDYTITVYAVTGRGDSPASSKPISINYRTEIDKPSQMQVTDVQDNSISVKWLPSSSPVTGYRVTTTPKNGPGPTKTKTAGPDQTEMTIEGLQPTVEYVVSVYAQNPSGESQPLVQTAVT
The target of experiment [5] is native FN 120 kD (B+) thermolysin fragment (human) (UniProt P02751).
Chain of native FN 120 kD (B+) thermolysin fragment (human) (P02751 722-1721 limits assumed): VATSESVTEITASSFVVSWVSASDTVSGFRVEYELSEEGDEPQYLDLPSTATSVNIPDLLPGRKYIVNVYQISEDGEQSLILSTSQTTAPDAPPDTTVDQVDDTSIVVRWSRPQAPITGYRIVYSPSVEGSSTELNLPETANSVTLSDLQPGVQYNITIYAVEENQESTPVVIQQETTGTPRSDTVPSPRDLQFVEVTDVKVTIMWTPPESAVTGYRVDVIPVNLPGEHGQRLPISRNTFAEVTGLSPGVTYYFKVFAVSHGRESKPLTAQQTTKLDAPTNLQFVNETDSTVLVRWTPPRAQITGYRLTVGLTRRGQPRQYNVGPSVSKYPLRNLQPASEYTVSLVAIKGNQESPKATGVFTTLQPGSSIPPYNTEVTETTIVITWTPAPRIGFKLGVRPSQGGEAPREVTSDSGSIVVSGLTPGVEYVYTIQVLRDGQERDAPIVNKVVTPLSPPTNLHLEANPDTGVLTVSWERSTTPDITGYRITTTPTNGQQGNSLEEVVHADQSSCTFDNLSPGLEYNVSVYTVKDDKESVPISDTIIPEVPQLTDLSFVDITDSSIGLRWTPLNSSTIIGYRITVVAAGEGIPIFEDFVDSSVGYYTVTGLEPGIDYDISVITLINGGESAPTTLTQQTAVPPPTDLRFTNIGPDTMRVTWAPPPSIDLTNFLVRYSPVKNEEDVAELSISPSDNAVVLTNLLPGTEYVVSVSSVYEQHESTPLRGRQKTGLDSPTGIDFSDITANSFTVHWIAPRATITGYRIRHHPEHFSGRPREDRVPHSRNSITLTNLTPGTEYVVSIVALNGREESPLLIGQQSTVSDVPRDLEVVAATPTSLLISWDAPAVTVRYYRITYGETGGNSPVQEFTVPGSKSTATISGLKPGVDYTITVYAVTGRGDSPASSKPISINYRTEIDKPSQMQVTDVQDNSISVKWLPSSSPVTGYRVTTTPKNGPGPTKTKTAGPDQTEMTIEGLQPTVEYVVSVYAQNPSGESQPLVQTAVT
Experiment [6] has as its target fibronectin purified from the conditioned medium of the SV40-transformed cell line WI38VA13 (human) (UniProt P02751).
Experiment [7] deals with large isoform of tenascin-C (UniProt P24821).
The target of experiment [8] is recombinant ED-B domain of human fibronectin with a carboxy terminal hexahistidine tag (human) (UniProt P02751).
Chain of recombinant ED-B domain of human fibronectin with a carboxy terminal hexahistidine tag (human) (P02751 other isoform, or with tags, fused parts or gaps limits assumed): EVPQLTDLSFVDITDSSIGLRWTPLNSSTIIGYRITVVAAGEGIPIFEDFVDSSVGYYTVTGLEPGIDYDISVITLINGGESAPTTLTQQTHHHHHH
The target in experiment [9] is recombinant FN fragment 7B89 (human) (UniProt P02751).

Chain of recombinant FN domain 6 (human) (P02751 other isoform, or with tags, fused parts or gaps limits assumed): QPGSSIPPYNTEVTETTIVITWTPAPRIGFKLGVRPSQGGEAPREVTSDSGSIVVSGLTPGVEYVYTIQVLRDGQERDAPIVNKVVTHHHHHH
Chain of recombinant FN fragment 789 (human) (P02751 other isoform, or with tags, fused parts or gaps limits assumed): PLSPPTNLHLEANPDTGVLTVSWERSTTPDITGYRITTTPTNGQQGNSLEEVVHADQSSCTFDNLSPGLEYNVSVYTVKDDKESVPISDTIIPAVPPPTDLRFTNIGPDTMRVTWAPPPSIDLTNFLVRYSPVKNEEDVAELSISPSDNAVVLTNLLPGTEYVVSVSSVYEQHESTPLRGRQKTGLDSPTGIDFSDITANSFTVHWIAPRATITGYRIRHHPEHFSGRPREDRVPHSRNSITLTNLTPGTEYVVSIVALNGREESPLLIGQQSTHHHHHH
Chain of fibronectin purified from the conditioned medium of the SV40-transformed cell line WI38VA13 (human) (P02751 32-2477): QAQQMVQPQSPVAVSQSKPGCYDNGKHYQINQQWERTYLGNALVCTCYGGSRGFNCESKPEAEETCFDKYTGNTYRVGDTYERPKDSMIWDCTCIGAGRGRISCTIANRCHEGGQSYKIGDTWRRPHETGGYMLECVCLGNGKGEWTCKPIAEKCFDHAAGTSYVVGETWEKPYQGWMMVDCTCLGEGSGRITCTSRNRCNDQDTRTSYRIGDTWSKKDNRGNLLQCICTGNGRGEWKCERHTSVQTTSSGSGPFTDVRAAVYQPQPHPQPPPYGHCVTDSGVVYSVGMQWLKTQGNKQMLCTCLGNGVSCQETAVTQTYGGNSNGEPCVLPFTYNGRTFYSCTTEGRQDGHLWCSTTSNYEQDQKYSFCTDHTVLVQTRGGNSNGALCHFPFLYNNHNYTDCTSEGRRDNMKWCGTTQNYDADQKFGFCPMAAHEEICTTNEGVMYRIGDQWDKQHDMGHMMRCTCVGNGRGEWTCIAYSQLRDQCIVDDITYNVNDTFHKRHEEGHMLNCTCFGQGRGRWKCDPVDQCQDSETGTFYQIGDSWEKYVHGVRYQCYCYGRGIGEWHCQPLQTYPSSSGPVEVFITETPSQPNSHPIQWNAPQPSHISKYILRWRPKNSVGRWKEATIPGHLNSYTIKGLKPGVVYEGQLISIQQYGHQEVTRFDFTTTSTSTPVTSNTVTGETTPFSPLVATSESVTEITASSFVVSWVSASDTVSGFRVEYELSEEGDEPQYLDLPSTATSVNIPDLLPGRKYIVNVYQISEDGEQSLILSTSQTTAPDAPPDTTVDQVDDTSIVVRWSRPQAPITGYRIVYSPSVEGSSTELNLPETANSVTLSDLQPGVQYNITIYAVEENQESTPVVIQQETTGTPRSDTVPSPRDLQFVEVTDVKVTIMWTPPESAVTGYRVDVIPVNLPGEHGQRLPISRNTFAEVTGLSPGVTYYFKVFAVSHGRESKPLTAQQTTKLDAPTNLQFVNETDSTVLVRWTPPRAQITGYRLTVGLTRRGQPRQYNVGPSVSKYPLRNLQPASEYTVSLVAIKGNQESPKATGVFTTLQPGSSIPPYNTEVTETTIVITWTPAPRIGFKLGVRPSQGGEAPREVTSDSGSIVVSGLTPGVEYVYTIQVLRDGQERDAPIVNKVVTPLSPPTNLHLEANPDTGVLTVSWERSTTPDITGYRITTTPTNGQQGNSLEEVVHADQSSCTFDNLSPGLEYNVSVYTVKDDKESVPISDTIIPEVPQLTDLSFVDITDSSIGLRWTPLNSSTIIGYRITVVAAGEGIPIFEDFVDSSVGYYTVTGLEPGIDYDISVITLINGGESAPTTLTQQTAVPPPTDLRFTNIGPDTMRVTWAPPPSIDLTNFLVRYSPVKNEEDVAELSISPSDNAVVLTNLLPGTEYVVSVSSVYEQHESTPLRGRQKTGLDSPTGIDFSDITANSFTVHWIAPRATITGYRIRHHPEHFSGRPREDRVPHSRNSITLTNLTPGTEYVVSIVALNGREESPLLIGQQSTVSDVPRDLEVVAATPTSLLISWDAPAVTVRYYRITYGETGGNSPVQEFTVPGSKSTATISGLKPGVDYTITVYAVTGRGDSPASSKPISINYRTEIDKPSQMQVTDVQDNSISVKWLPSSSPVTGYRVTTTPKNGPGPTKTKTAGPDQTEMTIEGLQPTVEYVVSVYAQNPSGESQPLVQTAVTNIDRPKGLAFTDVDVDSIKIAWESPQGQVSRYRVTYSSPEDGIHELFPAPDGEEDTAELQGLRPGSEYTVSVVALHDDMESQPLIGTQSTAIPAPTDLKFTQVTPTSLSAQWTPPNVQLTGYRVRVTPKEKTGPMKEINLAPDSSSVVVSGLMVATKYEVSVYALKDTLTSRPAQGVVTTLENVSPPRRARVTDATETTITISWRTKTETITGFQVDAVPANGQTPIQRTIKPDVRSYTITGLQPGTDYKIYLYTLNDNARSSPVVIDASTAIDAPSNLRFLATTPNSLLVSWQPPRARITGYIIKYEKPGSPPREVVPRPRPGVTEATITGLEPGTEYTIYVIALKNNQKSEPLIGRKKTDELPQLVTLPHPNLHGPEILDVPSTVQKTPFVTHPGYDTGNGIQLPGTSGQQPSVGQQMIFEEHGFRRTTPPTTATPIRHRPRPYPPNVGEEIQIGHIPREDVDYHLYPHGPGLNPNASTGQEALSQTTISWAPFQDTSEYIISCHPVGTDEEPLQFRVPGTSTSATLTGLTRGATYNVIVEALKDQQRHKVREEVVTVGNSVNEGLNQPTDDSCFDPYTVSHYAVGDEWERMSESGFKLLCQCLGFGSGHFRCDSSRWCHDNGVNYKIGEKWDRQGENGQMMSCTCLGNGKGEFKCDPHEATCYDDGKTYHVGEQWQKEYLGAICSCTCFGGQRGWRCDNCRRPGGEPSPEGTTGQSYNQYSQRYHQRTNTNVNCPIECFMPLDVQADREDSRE

Take mAb BC-1 (antibody): the OD at 405 nm in experiment [1] is 0.05 OD 405 nm; in experiment [2], 0.08 OD 405 nm; in experiment [3] it was 0.09 OD 405 nm; in [4], 0.05 OD 405 nm; in experiment [5], 1.2 OD 405 nm; in experiment [6], 1.2 OD 405 nm. For the same substance, the OD at 405 nm in [7] came to 0.06 OD 405 nm; in experiment [8] it was 0.15 OD 405 nm; in experiment [9], 1.02 OD 405 nm.

As for mAb IST-6 (antibody), the OD at 405 nm stood at 1.25 OD 405 nm in experiment [1]; 0.03 OD 405 nm in [2]; 1.73 OD 405 nm in experiment [3]; 1.2 OD 405 nm in experiment [4]; 0.02 OD 405 nm in experiment [5]; 1.12 OD 405 nm in [6]. Besides, the OD at 405 nm came out at 0.02 OD 405 nm in [7], 0.04 OD 405 nm in experiment [8] and 0.01 OD 405 nm in experiment [9].
